Changes are numbered by the printed parent chain. “And” between values parts separate entries of the source, which are not always exact repeats. Identical values can stand only once.
B1: mouse 2C4 antibody (antibody, mouse IgG1, kappa)
heavy: QVQLKRASGPGLVAPSQSLSITCTVSGFSLTIYGAHWVRQPPGKGLEWLGVIWAGGSTNYNSALMSRLSISKDNSKSQVFLKINSLQTDDTALYYCARDGSSPYYYSMEYWGQGTSVTVSSAKTTPPSVYPLAPGSAAQTNSMVTLGCLVKGYFPEPVTVTWNSGSLSSGVHTFPAVLESDLYTLSSSVTVPSSPRPSETVTCNVAHPASSTKVDKKIVPRDCGCKPCICTVPEVSSVFIFPPKPKDVLTITLTPKVTCVVVDISKDDPEVQFSWFVDDVEVHTAQTQPREEQFNSTFRSVSELPIMHQDWLNGKEFKCRVNSAAFPAPIEKTISKTKGRPKAPQVYTIPPPKEQMAKDKVSLTCMITDFFPEDITVEWQWNGQPAENYKNTQPIMNTNGSYFVYSKLNVQKSNWEAGNTFTCSVLHEGLHNHHTEKSLSHSPG
light: EIILTQSPAIMSASPGEKVSITCSATSSVSYMHWFQQKPGTSPKLWIYSTSNLASGVPVRFSGSGSGTSYSLTISRMEAEDAATYYCQQRSSYPFTFGSGTKLEIKADAAPTVSIFPPSSEQLTSGGASVVCFLNNFYPKDINVKWKIDGSERQNGVLNSWTDQDSKDSTYSMSSTLTLTKDEYERHNSYTCEATHKTSTSPIVKSFNRNEC
notes: murine IgG1/kappa; also called mo2C4; m2C4
B2: HAKA (antibody, human IgG1, V domains shown)
VH: EVQLVESGGGLVQPGGSLRLSCAASGFSLTIYGAHWVRQAPGKGLEWVSVIWAGGSTNYNSALMSRFTISKDNSKNTVYLQMNSLRAEDTAVYYCARDGSSPYYYSMEYWGQGTTVTVSS
VL: EIVLTQSPATLSLSPGERATLSCSATSSVSYMHWFQQKPGQAPRLLIYSTSNLASGIPARFSGSGSGTDFTLTISSLEPEDFAVYYCQQRSSYPFTFGPGTKLDIK
notes: human IgG1/kappa
B3: HAKG (antibody, human IgG1, V domains shown)
VH: B2 VH
VL: B2 VL with F35Y
notes: human IgG1/kappa
B4: HBKD (antibody, human IgG1, V domains shown)
VH: B2 VH with A24V, V48L, S49G, F67L, T68S
VL: B2 VL with L46W
notes: human IgG1/kappa
B5: HCKG (antibody, human IgG1, V domains shown)
VH: B2 VH with A24V
VL: B2 VL with F35Y
notes: human IgG1/kappa
B6: HAKC (antibody, human IgG1, V domains shown)
VH: B2 VH
VL: B2 VL with V3I
notes: human IgG1/kappa
B7: HCKE (antibody, human IgG1, V domains shown)
VH: B2 VH with A24V
VL: B2 VL with I57V
notes: human IgG1/kappa
B8: HBKA (antibody, human IgG1, V domains shown)
VH: B2 VH with A24V, V48L, S49G, F67L, T68S
VL: B2 VL
notes: human IgG1/kappa
B9: HAKD (antibody, human IgG1, V domains shown)
VH: B2 VH
VL: B2 VL with L46W
notes: human IgG1/kappa
B10: HAKB (antibody, human IgG1, V domains shown)
VH: B2 VH
VL: B2 VL with V3I, L46W, I57V, F70Y
notes: human IgG1/kappa
B11: HBKB (antibody, human IgG1, V domains shown)
VH: B2 VH with A24V, V48L, S49G, F67L, T68S
VL: B2 VL with V3I, L46W, I57V, F70Y
notes: human IgG1/kappa
B12: HDKC (antibody, human IgG1, V domains shown)
VH: B2 VH with V48L
VL: B2 VL with V3I
notes: human IgG1/kappa
B13: HBKC (antibody, human IgG1, V domains shown)
VH: B2 VH with A24V, V48L, S49G, F67L, T68S
VL: B2 VL with V3I
notes: human IgG1/kappa
B14: HBKFmut (antibody, human IgG1, V domains shown)
VH: B2 VH with A24V, V48L, S49G, F67L, T68S
VL: B2 VL with F70Y, F95Y
notes: human IgG1/kappa
B15: HCKA (antibody, human IgG1, V domains shown)
VH: B2 VH with A24V
VL: B2 VL
notes: human IgG1/kappa
B16: HBKG (antibody, human IgG1, V domains shown)
VH: B2 VH with A24V, V48L, S49G, F67L, T68S
VL: B2 VL with F35Y
notes: human IgG1/kappa
B17: HAKFmut (antibody, human IgG1, V domains shown)
VH: B2 VH
VL: B2 VL with F70Y, F95Y
notes: human IgG1/kappa
B18: HDKE (antibody, human IgG1, V domains shown)
VH: B2 VH with V48L
VL: B2 VL with I57V
notes: human IgG1/kappa
B19: HDKB (antibody, human IgG1, V domains shown)
VH: B2 VH with V48L
VL: B2 VL with V3I, L46W, I57V, F70Y
notes: human IgG1/kappa
B20: HAKF (antibody, human IgG1, V domains shown)
VH: B2 VH
VL: B2 VL with F70Y
notes: human IgG1/kappa
B21: HCKFmut (antibody, human IgG1, V domains shown)
VH: B2 VH with A24V
VL: B2 VL with F70Y, F95Y
notes: human IgG1/kappa
B22: HDKD (antibody, human IgG1, V domains shown)
VH: B2 VH with V48L
VL: B2 VL with L46W
notes: human IgG1/kappa
B23: HCKD (antibody, human IgG1, V domains shown)
VH: B2 VH with A24V
VL: B2 VL with L46W
notes: human IgG1/kappa
B24: HCKF (antibody, human IgG1, V domains shown)
VH: B2 VH with A24V
VL: B2 VL with F70Y
notes: human IgG1/kappa
B25: HAKE (antibody, human IgG1, V domains shown)
VH: B2 VH
VL: B2 VL with I57V
notes: human IgG1/kappa
B26: HBKF (antibody, human IgG1, V domains shown)
VH: B2 VH with A24V, V48L, S49G, F67L, T68S
VL: B2 VL with F70Y
notes: human IgG1/kappa
B27: HDKA (antibody, human IgG1, V domains shown)
VH: B2 VH with V48L
VL: B2 VL
notes: human IgG1/kappa
B28: HBKE (antibody, human IgG1, V domains shown)
VH: B2 VH with A24V, V48L, S49G, F67L, T68S
VL: B2 VL with I57V
notes: human IgG1/kappa
B29: HCKB (antibody, human IgG1, V domains shown)
VH: B2 VH with A24V
VL: B2 VL with V3I, L46W, I57V, F70Y
notes: human IgG1/kappa
B30: HCKC (antibody, human IgG1, V domains shown)
VH: B2 VH with A24V
VL: B2 VL with V3I
notes: human IgG1/kappa

Molecular target: T1, recombinant human Siglec-8 extracellular domain (ECD) (human, UniProt Q9NYZ4 17-363)
T1 construct: extracellular domain; also called Siglec-8 ECD; full Siglec-8 ECD
T1 sequence (Q9NYZ4 17-363): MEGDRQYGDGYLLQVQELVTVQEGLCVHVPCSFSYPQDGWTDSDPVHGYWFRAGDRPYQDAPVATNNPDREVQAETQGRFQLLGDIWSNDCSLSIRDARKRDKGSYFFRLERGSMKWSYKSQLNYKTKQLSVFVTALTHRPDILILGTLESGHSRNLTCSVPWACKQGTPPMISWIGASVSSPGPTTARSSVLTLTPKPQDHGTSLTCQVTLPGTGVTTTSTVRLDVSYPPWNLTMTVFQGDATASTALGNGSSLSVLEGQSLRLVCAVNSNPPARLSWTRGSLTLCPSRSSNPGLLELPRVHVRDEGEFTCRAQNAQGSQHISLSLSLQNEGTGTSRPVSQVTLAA
Assay: ELISA, coated Siglec-8 ECD
Description: Binding of recombinant human Siglec-8 extracellular domain (ECD) by chimeric 2E2 and chimeric 2C4 IgG1K antibodies was measured by ELISA. […] Three-fold serial dilutions of a chimeric antibody (ch2E2 or ch2C4) or mouse antibody (m2E2 or m2C4) in 0.2% BSA/TBS (starting concentration was 5000 ng/mL) was added to each coated well. The plate was incubated for 2 hours at room temperature and the wells were subsequently washed before addition of goat-anti-human Fc peroxidase conjugate (1:10000 dilution) or anti-mouse Fc peroxidase conjugate (1:30000 dilution) diluted in 0.2% BSA/TBS solution. The plate was incubated for 45 minutes at room temperature, followed by washing and addition of 30 μL K-blue HRP substrate (SkyBio Ltd) to each well. After incubation at room temperature for 15 minutes, the reaction was stopped by adding 10 μL of Red Stop solution (SkyBio Ltd) to each well. The optical density or the experimental samples was read at 650 nm using the ELISA reader PHERAStar FS (BMG Labtech).
The fully humanized antibody heavy and light chains were combined and compared with the chimeric antibody to determine if replacing the 4 Å and canonical framework residues and interface residues was sufficient to successfully humanize 2E2. Expi293 cells were co-transfected with combinations of different humanized light chain vectors in association with different humanized heavy chain vectors. Siglec-8 antigen was used to measure antibody binding by ELISA as described in Example 1.

Row | Binder | EC50
1 | B1 | 0.115 nM
2 | B2 | 0.085 nM and 0.058 nM
3 | B3 | 0.189 nM
4 | B4 | 0.039 nM
5 | B5 | 0.273 nM
6 | B6 | 0.066 nM
7 | B7 | 0.059 nM
8 | B8 | 0.055 nM and 0.07 nM
9 | B9 | 0.058 nM
10 | B10 | 0.071 nM
11 | B11 | 0.056 nM
12 | B12 | 0.057 nM
13 | B13 | 0.033 nM
14 | B14 | 0.048 nM
15 | B15 | 0.056 nM
16 | B16 | 0.212 nM
17 | B17 | 0.086 nM
18 | B18 | 0.065 nM
19 | B19 | 0.055 nM
20 | B20 | 0.078 nM and 0.062 nM
21 | B21 | 0.078 nM
22 | B22 | 0.048 nM
23 | B23 | 0.049 nM
24 | B24 | 0.05 nM
25 | B25 | 0.052 nM
26 | B26 | 0.066 nM and 0.051 nM
27 | B27 | 0.067 nM
28 | B28 | 0.061 nM
29 | B29 | 0.065 nM
30 | B30 | 0.058 nM
